Results: paper PMC8490154, “Mass-sensitive particle tracking to elucidate the membrane-associated MinDE reaction cycle” (Nature Methods, 2021)
Values joined by “and” are separate entries in the source; they are usually repeats but may differ in a detail not shown here. Equal entries are not always repeated. Where two headings read alike, the source gives them in different places. One block for each molecule: values may come before it.

Columns and labels:
MinD (Escherichia coli) [1] = target: MinD (Escherichia coli) (UniProt P0AEZ3); experiment: mass-sensitive particle tracking (MSPT, iSCAT) on a supported lipid bilayer; MinD or MinD D40A alone, 50-200 nM, 0.5 mM ATP, Min buffer, SLB of 70 mol% DOPC / 30 mol% DOPG, room temperature (23 ± 2 °C); particle densities 0.03-0.8 µm^-2; monomers (33 kDa) not quantitatively detectable
MinD (Escherichia coli) [2] = target: MinD (Escherichia coli) (UniProt P0AEZ3); experiment: as above; remark: listed apart in the source
[3] = target: the molecule itself; experiment: as above
[4] = target: the molecule itself; experiment: mass-sensitive particle tracking (MSPT, iSCAT) on a supported lipid bilayer; co-reconstitution of equimolar MinD and MinE, 50-200 nM each, 0.5 mM ATP, Min buffer, SLB of 70 mol% DOPC / 30 mol% DOPG, room temperature; particle densities 0.1-0.8 µm^-2

stoichiometry N (MinD (Escherichia coli) [1]): 3 and 4
stoichiometry N (MinD (Escherichia coli) [2]): 2
Molecule: MinD (from UniProt P0AEZ3 1-270) (natural protein)

B1: MinD D40A (natural protein, Escherichia coli, UniProt P0AEZ3 1-270, looked up)
chain: MARIIVVTSGKGGVGKTTSSAAIATGLAQKGKKTVVIDFAIGLRNLDLIMGCERRVVYDFVNVIQGDATLNQALIKDKRTENLYILPASQTRDKDALTREGVAKVLDDLKAMDFEFIVCDSPAGIETGALMALYFADEAIITTNPEVSSVRDSDRILGILASKSRRAENGEEPIKEHLLLTRYNPGRVSRGDMLSMEDVLEILRIKLVGVIPEDQSVLRASNQGEPVILDINADAGKAYADTVERLLGEERPFRFIEEEKKGFLKRLFGG
notes: ATPase MinD of the Escherichia coli Min system with D40A (impaired ATP hydrolysis); A purification tag is probably present (surmise); also called D40A mutant; MinD mutant (D40A)
stoichiometry N [3]: 2 and 4

B2: MinE (natural protein, Escherichia coli, UniProt P0A734 1-88, looked up)
chain: MALLDFFLSRKKNTANIAKERLQIIVAERRRSDAEPHYLPQLRKDILEVICKYVQIDPEMVTVQLEQKDGDISILELNVTLPEAEELK
notes: MinE of the Escherichia coli Min system; A purification tag is probably present (surmise)
binding result [4]: binds
